Experiments:
Test in all cases: IEDB peptide-MHC binding, purified MHC/competitive/radioactivity; ≥ and ≤ were set here for values at or beyond the usual limits of such assays
Conditions in all cases: source organism: Bordetella pertussis
HLA-B*35:01 = target: HLA-B*35:01
HLA-B*57:01 = target: HLA-B*57:01
HLA-B*44:03 = target: HLA-B*44:03
HLA-B*07:02 = target: HLA-B*07:02
HLA-A*02:01 = target: HLA-A*02:01
HLA-B*53:01 = target: HLA-B*53:01

For PKPKPKPKA, the IC50 (HLA-B*35:01) was 69.9 µM.

In the case of LALQAGDAL, the IC50 (HLA-B*35:01) is reported as 31.5 µM.

GKSLKKKNQ showed an IC50 (HLA-B*35:01) of 69.9 µM.

GAFDLKTTF gave an IC50 (HLA-B*57:01) of 50.9 µM.

With FEGKPALEL the IC50 (HLA-B*44:03) was at least 70.1 µM.

For NITNKRAAL, the IC50 (HLA-B*07:02) was 22.9 µM.

In the case of DHLTGRSCQ, the IC50 (HLA-B*57:01) is reported as at least 70.4 µM.

EVAGALELS was tested, and the IC50 (HLA-B*35:01) was 69.9 µM.

RSRVRALSW was tested, and the IC50 (HLA-B*57:01) was 0.0584 µM.

VSSATKAKG was tested, and the IC50 (HLA-B*57:01) was at least 70.4 µM.

In the case of ALANDGTIV, the IC50 (HLA-A*02:01) is reported as at least 78.1 µM.

In the case of DATFQTYAL, the IC50 (HLA-B*53:01) is reported as 65.4 µM and the IC50 (HLA-B*35:01) is reported as 17 µM.

Work on MAAGHDATL yielded an IC50 (HLA-B*53:01) of 6.13 µM.

KPLADIAVV showed an IC50 (HLA-B*07:02) of 5.56 µM.
